No end group written: not given here.
Experiments:
[1] = biological target: the molecule itself; assay: AUC; sedimentation equilibrium, 20 °C, PBS, 100 μM total peptide, 44–60 krpm, single ideal species model
[2] = biological target: T1, KLC1 TPR domain; assay: fluorescence polarisation; TAMRA-conjugated peptide at 150 nM, increasing KLC1/2 TPR protein (typically 0–25 μM); 25 mM HEPES pH 7.4, 5 mM β-mercaptoethanol, 150 mM NaCl; room temperature; one-site specific binding model; conditions: both partners purified
T1 construct: also called isolated TPR domains; KLC-1 TPR protein; source: E. coli BL21(DE3), purified (His-Trap, SEC)

[3] = biological target: T2, KLC2 TPR domain; assay: as above; conditions: both partners purified
T2 construct: kinesin light chain 2 (KLC2), TPR domain, residues A196-K480, in pET28His-Thrombin; source: E. coli BL21(DE3), purified (His-Trap, SEC)

- Kd [2]: ~25 µM
- Kd [3]: 2.7 µM
Binder: ENEALKDEVKELLQALEELAVNYDQLSQ-NH2 (also: TAMRA-conjugated, position not given here) [Eng-TDS]
- stoichiometry N [1]: 2

— PMC13078783, “Kinesin-1 conformational dynamics are controlled by a cargo-sensitive TPR switch” (eLife, 2026)
